The Kd is a measure of binding affinity in units of concentration. The term koff denotes the first-order rate constant of dissociation. In general, kon refers to a measure of how fast the partners come together.

Experiment [1] concerns the target T1, human heterodimeric single-chain CD3γδ extracellular domain (produced in-house) (human).
T1 chain 1: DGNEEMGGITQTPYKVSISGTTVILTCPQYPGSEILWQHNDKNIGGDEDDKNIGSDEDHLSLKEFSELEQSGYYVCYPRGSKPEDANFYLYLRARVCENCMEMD
T1 chain 2: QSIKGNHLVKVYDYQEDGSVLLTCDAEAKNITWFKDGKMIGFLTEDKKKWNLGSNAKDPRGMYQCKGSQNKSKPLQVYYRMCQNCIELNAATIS
The experiment can be described thus: SPR, human single-chain CD3 ECD immobilised by amine coupling, scDb injected. (In SPR one partner is held on a chip, and binding of the other changes the refractive index at the surface.)

Experiment [2] concerns the target T2, cynomolgus IL23R Fc chimera (cynomolgus monkey, UniProt G7NWY5 24-353).
T2 construct: source of the cynomolgus chimera is not clearly stated; also called cyno IL23R; not shown: Fc part of the chimera
T2 sequence: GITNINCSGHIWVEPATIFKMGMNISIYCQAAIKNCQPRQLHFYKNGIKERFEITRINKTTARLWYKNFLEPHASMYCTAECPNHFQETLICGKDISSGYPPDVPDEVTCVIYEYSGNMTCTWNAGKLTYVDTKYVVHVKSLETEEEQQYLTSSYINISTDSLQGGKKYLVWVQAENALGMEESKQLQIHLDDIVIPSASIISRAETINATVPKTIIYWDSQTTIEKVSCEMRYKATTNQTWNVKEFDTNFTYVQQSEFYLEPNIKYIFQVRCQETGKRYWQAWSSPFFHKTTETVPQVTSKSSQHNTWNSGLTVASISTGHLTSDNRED
Description: SPR, IL23R Fc chimera captured by anti-human IgG Fc, scFv injected. The procedure: (§1) Binding affinities of anti-IL23R scFvs were measured by surface plasmon resonance (SPR) using a MASS-1 SPR instrument (Sierra Sensors). […] After immobilization, 1 ug/ml recombinant human IL23R Fc chimera (R&D Systems, Cat. No. 1400-IR-050) was captured by the anti-human IgG antibody while a second immobilized channel served as a control where the capture was replaced by buffer. Two-fold serial dilutions of human scFvs ranging from 180 to 2.81 nM were injected into both flow cells for 3 min and dissociation of the scFvs from the chimera on the sensor chip was allowed to proceed for 700 sec. After each injection cycle, surfaces were regenerated with two 1 min injections of 10 mM glycine-HCl pH 1.5. In a similar manner the affinities for cynomolgus and mouse IL23R Fc chimera (R&D Systems, Cat. No. 1686-MR-050) was measured. The apparent dissociation (kd) and association (ka) rate constants and the apparent dissociation equilibrium constant (KD) were calculated with the MASS-1 analysis software (Analyzer, Sierra Sensors) using one-to-one Langmuir binding model.

The target in experiment [3] is T3, recombinant human IL23R Fc chimera (R&D Systems, Cat. No. 1400-IR-050) (human, UniProt Q5VWK5 24-353).
T3 construct: bought
Described as above. The procedure:
as §1

Experiment [4] addresses T4, mouse IL23R Fc chimera (R&D Systems, Cat. No. 1686-MR-050) (mouse, UniProt Q8K4B4 24-372).
T4 construct: bought; Fc part of the bought chimera not given
T4 sequence (looked up): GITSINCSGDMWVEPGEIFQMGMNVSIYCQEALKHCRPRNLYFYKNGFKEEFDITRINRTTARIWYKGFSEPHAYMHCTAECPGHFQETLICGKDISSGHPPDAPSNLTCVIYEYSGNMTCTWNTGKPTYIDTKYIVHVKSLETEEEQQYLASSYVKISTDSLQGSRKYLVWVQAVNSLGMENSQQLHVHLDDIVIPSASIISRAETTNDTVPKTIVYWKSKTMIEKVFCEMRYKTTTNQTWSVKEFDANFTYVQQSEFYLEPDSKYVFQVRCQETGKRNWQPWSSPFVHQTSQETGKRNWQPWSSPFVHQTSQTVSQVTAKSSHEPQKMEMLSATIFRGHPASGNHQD
Described as above. How it is done:
as §1

B1: PRO165, bispecific anti-IL23R x CD3ε single-chain diabody (bispecific antibody)
chain: DIQMTQSPSSLSASVGDRVTITCQASENIYSFLAWYQQKPGKAPKLLIYSASKLAAGVPSRFSGSGSGTDFTLTISSLQPEDFATYYCQQTNRYSNPDIYNVFGQGTKLTVLGGGGGSEVQLVESGGGLVQPGGSLRLSCAASGFPLSSYAMIWVRQAPGKGLEWIGMILRAGNIYYASWVKGRFTISRDNSKNTVYLQMNSLRAEDTAVYYCARRHYNREGYPIGIGDLWGQGTLVTVSSGGGGSGGGGSGGGGSGGGGSDIQMTQSPSSLSASVGDRVTITCQSSESVYNNKRLSWYQQKPGKAPKLLIYTASSLASGVPSRFSGSGSGTDFTLTISSLQPEDFATYYCQGEFTCSNADCFTFGQGTKLTVLGGGGGSEVQLVESGGGLVQPGGSLRLSCAASGIDFNSNYYMCWVRQAPGKGLEWIGCIYVGSHVNTYYANWAKGRFTISRDNSKNTVYLQMNSLRAEDTAVYYCATSGSSVLYFKFWGQGTLVTVSS
notes: VL(anti-IL23R 14-11-D07-sc01)-G4S-VH(anti-CD3 clone 6)-(G4S)4-VL(anti-CD3 clone 6)-G4S-VH(anti-IL23R 14-11-D07-sc01); also called scDb
In experiment [1], B1 gave a Kd of 11.6 nM, an off-rate (koff) of 0.00126 s⁻¹ and a kon of 109000 M⁻¹ s⁻¹.

B2: humanized anti-IL23R scFv 14-11-D07-sc01 (scFv, V domains shown)
VH: EVQLVESGGGLVQPGGSLRLSCAASGIDFNSNYYMCWVRQAPGKGLEWIGCIYVGSHVNTYYANWAKGRFTISRDNSKNTVYLQMNSLRAEDTAVYYCATSGSSVLYFKFWGQGTLVTVSS
VL: DIQMTQSPSSLSASVGDRVTITCQASENIYSFLAWYQQKPGKAPKLLIYSASKLAAGVPSRFSGSGSGTDFTLTISSLQPEDFATYYCQQTNRYSNPDIYNVFGQGTKLTVLG
notes: tested as a single-chain Fv; CDR graft on a Vk1/VH3 human acceptor framework
As to B2, in experiment [2], the dissociation constant (Kd) came to 0.124 nM, the koff was 0.000361 s⁻¹ and the association rate constant (kon) came to 2.92e+06 M⁻¹ s⁻¹. In addition, in experiment [3], the equilibrium dissociation constant (Kd) was found to be 0.116 nM, the dissociation rate constant (koff) worked out at 0.000259 s⁻¹ and the kon is 2.24e+06 M⁻¹ s⁻¹. In experiment [4], this molecule had an equilibrium dissociation constant (Kd) of 2.21 nM, an off-rate constant (koff) of 0.00418 s⁻¹ and a kon of 1.89e+06 M⁻¹ s⁻¹.
